Assay results: patent US20160102137A1

Legend:
Assay in all cases: cell-based or functional assay
[1] = molecular target: HIV-1 envelope (Env) spike trimer of strain 6535.3 (HIV-1 strain 6535.3)
[2] = molecular target: HIV-1 envelope (Env) spike trimer of strain CAP210 (HIV-1 strain CAP210)
[3] = molecular target: HIV-1 envelope (Env) spike trimer of strain SC4226618 (HIV-1 strain SC4226618)

Substance: 3BNC60-62 bp-3BNC60 homo-diFab
- neutralization potency (IC50) compared with 3BNC60 IgG against HIV-1 6535.3 [1]: 100 fold

Substance: PG16-60 bp-b12 hetero-diFab (bispecific antibody)
- neutralization potency compared with the mixture of Fabs plus dsDNA or the more potent of the two Fabs alone [2]: 10 fold
- neutralization potency compared with the mixture of Fabs plus dsDNA or the more potent of the two Fabs alone [3]: 10 fold
